Experiments:
[1] = molecular target: human pro B-type natriuretic peptide (HyTest, Turku, Finland; Catalog No. 8PRO8) (human); experiment: sandwich CMIA, capture 15F11, 577.4 pM, against human NT-proBNP
[2] = molecular target: glycosylated human proBNP (HyTest, Turku, Finland; Catalog No. 8GOB2) (human); experiment: as above
[3] = molecular target: human NT-pro B-type natriuretic peptide (HyTest, Turku, Finland; Catalog No. 8NT1) (human); experiment: sandwich CMIA, capture 15C4, analyte 86.6 pM
[4] = molecular target: human pro B-type natriuretic peptide (HyTest, Turku, Finland; Catalog No. 8PRO8) (human); experiment: sandwich CMIA, capture 15C4, analyte 86.6 pM
[5] = molecular target: glycosylated human proBNP (HyTest, Turku, Finland; Catalog No. 8GOB2) (human); experiment: sandwich CMIA, capture 15C4, analyte 86.6 pM
[6] = molecular target: human NT-pro B-type natriuretic peptide (HyTest, Turku, Finland; Catalog No. 8NT1) (human); experiment: sandwich CMIA, capture 15C4, analyte 577.4 pM
[7] = molecular target: human pro B-type natriuretic peptide (HyTest, Turku, Finland; Catalog No. 8PRO8) (human); experiment: sandwich CMIA, capture 15C4, analyte 577.4 pM
[8] = molecular target: glycosylated human proBNP (HyTest, Turku, Finland; Catalog No. 8GOB2) (human); experiment: sandwich CMIA, capture 15C4, analyte 577.4 pM
[9] = molecular target: human pro B-type natriuretic peptide (HyTest, Turku, Finland; Catalog No. 8PRO8) (human); experiment: sandwich CMIA, capture 15F11, 288.7 pM, against human NT-proBNP
[10] = molecular target: glycosylated human proBNP (HyTest, Turku, Finland; Catalog No. 8GOB2) (human); experiment: as above
[11] = molecular target: human NT-pro B-type natriuretic peptide (HyTest, Turku, Finland; Catalog No. 8NT1) (human); experiment: sandwich CMIA, capture 15F11, analyte 43.3 pM
[12] = molecular target: human pro B-type natriuretic peptide (HyTest, Turku, Finland; Catalog No. 8PRO8) (human); experiment: sandwich CMIA, capture 15F11, analyte 43.3 pM
[13] = molecular target: glycosylated human proBNP (HyTest, Turku, Finland; Catalog No. 8GOB2) (human); experiment: sandwich CMIA, capture 15F11, analyte 43.3 pM
[14] = molecular target: human NT-pro B-type natriuretic peptide (HyTest, Turku, Finland; Catalog No. 8NT1) (human); experiment: sandwich CMIA, capture 15C4, analyte 0.0 pM (blank)
[15] = molecular target: human pro B-type natriuretic peptide (HyTest, Turku, Finland; Catalog No. 8PRO8) (human); experiment: as above
[16] = molecular target: glycosylated human proBNP (HyTest, Turku, Finland; Catalog No. 8GOB2) (human); experiment: as above
[17] = molecular target: human NT-pro B-type natriuretic peptide (HyTest, Turku, Finland; Catalog No. 8NT1) (human); experiment: sandwich CMIA, capture 15F11, analyte 577.4 pM
[18] = molecular target: human pro B-type natriuretic peptide (HyTest, Turku, Finland; Catalog No. 8PRO8) (human); experiment: sandwich CMIA, capture 15F11, analyte 577.4 pM
[19] = molecular target: glycosylated human proBNP (HyTest, Turku, Finland; Catalog No. 8GOB2) (human); experiment: sandwich CMIA, capture 15F11, analyte 577.4 pM
[20] = molecular target: human NT-pro B-type natriuretic peptide (HyTest, Turku, Finland; Catalog No. 8NT1) (human); experiment: sandwich CMIA, capture 15F11, analyte 288.7 pM
[21] = molecular target: human pro B-type natriuretic peptide (HyTest, Turku, Finland; Catalog No. 8PRO8) (human); experiment: sandwich CMIA, capture 15F11, analyte 288.7 pM
[22] = molecular target: glycosylated human proBNP (HyTest, Turku, Finland; Catalog No. 8GOB2) (human); experiment: sandwich CMIA, capture 15F11, analyte 288.7 pM
[23] = molecular target: human NT-pro B-type natriuretic peptide (HyTest, Turku, Finland; Catalog No. 8NT1) (human); experiment: sandwich CMIA, capture 15F11, analyte 86.6 pM
[24] = molecular target: human pro B-type natriuretic peptide (HyTest, Turku, Finland; Catalog No. 8PRO8) (human); experiment: sandwich CMIA, capture 15F11, analyte 86.6 pM
[25] = molecular target: glycosylated human proBNP (HyTest, Turku, Finland; Catalog No. 8GOB2) (human); experiment: sandwich CMIA, capture 15F11, analyte 86.6 pM
[26] = molecular target: human NT-pro B-type natriuretic peptide (HyTest, Turku, Finland; Catalog No. 8NT1) (human); experiment: sandwich CMIA, capture 15C4, analyte 288.7 pM
[27] = molecular target: human pro B-type natriuretic peptide (HyTest, Turku, Finland; Catalog No. 8PRO8) (human); experiment: sandwich CMIA, capture 15C4, analyte 288.7 pM
[28] = molecular target: glycosylated human proBNP (HyTest, Turku, Finland; Catalog No. 8GOB2) (human); experiment: sandwich CMIA, capture 15C4, analyte 288.7 pM
[29] = molecular target: human pro B-type natriuretic peptide (HyTest, Turku, Finland; Catalog No. 8PRO8) (human); experiment: sandwich CMIA, capture 15F11, 43.3 pM, against human NT-proBNP
[30] = molecular target: glycosylated human proBNP (HyTest, Turku, Finland; Catalog No. 8GOB2) (human); experiment: as above
[31] = molecular target: human pro B-type natriuretic peptide (HyTest, Turku, Finland; Catalog No. 8PRO8) (human); experiment: sandwich CMIA, capture 15F11, 86.6 pM, against human NT-proBNP
[32] = molecular target: glycosylated human proBNP (HyTest, Turku, Finland; Catalog No. 8GOB2) (human); experiment: as above
[33] = molecular target: human NT-pro B-type natriuretic peptide (HyTest, Turku, Finland; Catalog No. 8NT1) (human); experiment: sandwich CMIA, capture 15C4, analyte 43.3 pM
[34] = molecular target: human pro B-type natriuretic peptide (HyTest, Turku, Finland; Catalog No. 8PRO8) (human); experiment: sandwich CMIA, capture 15C4, analyte 43.3 pM
[35] = molecular target: glycosylated human proBNP (HyTest, Turku, Finland; Catalog No. 8GOB2) (human); experiment: sandwich CMIA, capture 15C4, analyte 43.3 pM
[36] = molecular target: human pro B-type natriuretic peptide (HyTest, Turku, Finland; Catalog No. 8PRO8) (human); experiment: sandwich CMIA, capture 15F11, against human NT-proBNP
[37] = molecular target: human NT-pro B-type natriuretic peptide (HyTest, Turku, Finland; Catalog No. 8NT1) (human); experiment: sandwich CMIA, capture 15F11, analyte 0.0 pM (blank)
[38] = molecular target: human pro B-type natriuretic peptide (HyTest, Turku, Finland; Catalog No. 8PRO8) (human); experiment: as above
[39] = molecular target: glycosylated human proBNP (HyTest, Turku, Finland; Catalog No. 8GOB2) (human); experiment: as above
[40] = molecular target: human pro B-type natriuretic peptide (HyTest, Turku, Finland; Catalog No. 8PRO8) (human); experiment: sandwich CMIA, capture 15C4, 577.4 pM, against human NT-proBNP
[41] = molecular target: glycosylated human proBNP (HyTest, Turku, Finland; Catalog No. 8GOB2) (human); experiment: as above
[42] = molecular target: human pro B-type natriuretic peptide (HyTest, Turku, Finland; Catalog No. 8PRO8) (human); experiment: sandwich CMIA, capture 15C4, 43.3 pM, against human NT-proBNP
[43] = molecular target: glycosylated human proBNP (HyTest, Turku, Finland; Catalog No. 8GOB2) (human); experiment: as above
[44] = molecular target: human pro B-type natriuretic peptide (HyTest, Turku, Finland; Catalog No. 8PRO8) (human); experiment: sandwich CMIA, 15C4 (63-71) with 16F3 (13-20), against human NT-proBNP
[45] = molecular target: human pro B-type natriuretic peptide (HyTest, Turku, Finland; Catalog No. 8PRO8) (human); experiment: sandwich CMIA, capture 15C4, 86.6 pM, against human NT-proBNP
[46] = molecular target: glycosylated human proBNP (HyTest, Turku, Finland; Catalog No. 8GOB2) (human); experiment: as above
[47] = molecular target: human pro B-type natriuretic peptide (HyTest, Turku, Finland; Catalog No. 8PRO8) (human); experiment: sandwich CMIA, capture 15C4, 288.7 pM, against human NT-proBNP
[48] = molecular target: glycosylated human proBNP (HyTest, Turku, Finland; Catalog No. 8GOB2) (human); experiment: as above

human pro B-type natriuretic peptide (HyTest, Turku, Finland; Catalog No. 8PRO8) (human), sequence (chain, as listed by the source): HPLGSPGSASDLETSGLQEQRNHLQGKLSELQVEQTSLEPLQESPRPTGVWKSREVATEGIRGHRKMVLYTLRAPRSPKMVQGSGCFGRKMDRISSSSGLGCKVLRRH
human NT-pro B-type natriuretic peptide (HyTest, Turku, Finland; Catalog No. 8NT1) (human), sequence (chain, as listed by the source): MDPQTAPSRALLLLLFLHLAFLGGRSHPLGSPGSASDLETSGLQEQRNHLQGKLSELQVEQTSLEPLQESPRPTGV

Analyte rlus [3] [rlus] | Analyte rlus [4] [rlus] | Analyte rlus [5] [rlus] | Analyte rlus [6] [rlus] | Analyte rlus [7] [rlus] | Analyte rlus [8] [rlus] | Analyte rlus [11] [rlus] | Analyte rlus [12] [rlus] | Analyte rlus [13] [rlus] | Analyte rlus [14] [rlus] | Analyte rlus [15] [rlus] | Analyte rlus [16] [rlus] | Analyte rlus [17] [rlus] | Analyte rlus [18] [rlus] | Analyte rlus [19] [rlus] | Analyte rlus [20] [rlus] | Analyte rlus [21] [rlus] | Analyte rlus [22] [rlus] | Analyte rlus [23] [rlus] | Analyte rlus [24] [rlus] | Substance | also measured
2000 | 1820 | 1880 | 2080 | 1960 | 1790 | 21200 | 1490 | 1260 | 1940 | 1940 | 1940 | 662000 | 3360 | 1450 | 312000 | 2190 | 1580 | 57200 | 1540 | anti-human NT proBNP/anti-human proBNP monoclonal antibody 15C4 (HyTest, Turku, Finland) | % Cross-reactivity [1]: 0.3%; % Cross-reactivity [2]: 0%; % Cross-reactivity [9]: 0.3%; % Cross-reactivity [10]: 0.1%; Analyte rlus [25]: 2010 rlus; Analyte rlus [26]: 2060 rlus; Analyte rlus [27]: 1880 rlus; Analyte rlus [28]: 1860 rlus; % Cross-reactivity [29]: 0.7%; % Cross-reactivity [30]: -0.4%; % Cross-reactivity [31]: 0.4%; % Cross-reactivity [32]: 1.2%; Analyte rlus [33]: 1980 rlus; Analyte rlus [34]: 2180 rlus; Analyte rlus [35]: 1800 rlus; % Cross-reactivity [36]: < 1%; Analyte rlus [37]: 1340 rlus; Analyte rlus [38]: 1340 rlus; Analyte rlus [39]: 1340 rlus
699 | 747 | 751 | 850 | 735 | 770 | 7380 | 904 | 863 | 821 | 821 | 821 | 357000 | 1240 | 892 | 124000 | 1090 | 906 | 20800 | 938 | anti-human NT-proBNP/anti-human proBNP labeled monoclonal antibody 24E11 (HyTest, Turku, Finland) | % Cross-reactivity [1]: 0.1%; % Cross-reactivity [2]: 0%; % Cross-reactivity [9]: 0.2%; % Cross-reactivity [10]: 0%; Analyte rlus [25]: 918 rlus; Analyte rlus [26]: 814 rlus; Analyte rlus [27]: 834 rlus; Analyte rlus [28]: 725 rlus; % Cross-reactivity [29]: 0.3%; % Cross-reactivity [30]: -0.4%; % Cross-reactivity [31]: 0.3%; % Cross-reactivity [32]: 0.2%; Analyte rlus [33]: 786 rlus; Analyte rlus [34]: 718 rlus; Analyte rlus [35]: 781 rlus; % Cross-reactivity [36]: < 1%; Analyte rlus [37]: 886 rlus; Analyte rlus [38]: 886 rlus; Analyte rlus [39]: 886 rlus
26500 | 4060 | 861 | 320000 | 34700 | 1090 | 630 | 624 | 586 | 1040 | 1040 | 1040 | 631 | 914 | 635 | 696 | 720 | 643 | 592 | 621 | anti-human NT-proBNP/anti-human proBNP labeled monoclonal antibody 16F3 (HyTest, Turku, Finland) | % Cross-reactivity [40]: 10.6%; % Cross-reactivity [41]: 0%; % Cross-reactivity [42]: 9.2%; % Cross-reactivity [43]: -3.3%; % Cross-reactivity [44]: 10%; Analyte rlus [25]: 587 rlus; Analyte rlus [26]: 140000 rlus; Analyte rlus [27]: 13700 rlus; Analyte rlus [28]: 827 rlus; % Cross-reactivity [45]: 11.9%; % Cross-reactivity [46]: -0.7%; % Cross-reactivity [47]: 9.1%; % Cross-reactivity [48]: -0.2%; Analyte rlus [33]: 11400 rlus; Analyte rlus [34]: 1990 rlus; Analyte rlus [35]: 691 rlus; Analyte rlus [37]: 640 rlus; Analyte rlus [38]: 640 rlus; Analyte rlus [39]: 640 rlus

Reference: patent US20120122239A1
